Test results from article PMC5499572 (Nucleic Acids Research, 2017).

T1: Rsa1p_(230-381) (S. cerevisiae, UniProt Q08932 230-381)
T1 sequence: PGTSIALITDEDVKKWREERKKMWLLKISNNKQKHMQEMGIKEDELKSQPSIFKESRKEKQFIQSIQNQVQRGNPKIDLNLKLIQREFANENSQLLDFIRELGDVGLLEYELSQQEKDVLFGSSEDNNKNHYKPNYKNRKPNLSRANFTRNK

T2: His6TRX-Rrp9p (S. cerevisiae, UniProt Q06506 1-573)
T2 sequence: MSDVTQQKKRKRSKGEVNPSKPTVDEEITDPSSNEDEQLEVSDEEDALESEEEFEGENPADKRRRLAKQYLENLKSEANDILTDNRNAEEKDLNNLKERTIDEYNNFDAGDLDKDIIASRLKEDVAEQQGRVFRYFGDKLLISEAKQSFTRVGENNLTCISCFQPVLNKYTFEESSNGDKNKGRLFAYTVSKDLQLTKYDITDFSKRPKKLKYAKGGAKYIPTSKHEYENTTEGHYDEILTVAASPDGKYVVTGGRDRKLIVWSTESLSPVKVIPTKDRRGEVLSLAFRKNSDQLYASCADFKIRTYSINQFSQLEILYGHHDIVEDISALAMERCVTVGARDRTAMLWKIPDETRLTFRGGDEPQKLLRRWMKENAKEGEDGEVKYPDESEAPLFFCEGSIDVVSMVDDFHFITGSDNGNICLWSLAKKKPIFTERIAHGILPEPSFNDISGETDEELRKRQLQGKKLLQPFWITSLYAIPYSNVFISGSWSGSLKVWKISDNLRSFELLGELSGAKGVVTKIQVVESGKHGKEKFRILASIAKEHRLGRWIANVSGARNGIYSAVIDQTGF


Key:
Rsa1p_(230-381) = biological target: T1, Rsa1p_(230-381); experiment: native gel or EMSA
His6TRX-Rrp9p = biological target: T2, His6TRX-Rrp9p; experiment: native gel or EMSA

Binder | binding result (Rsa1p_(230-381)) | binding result (His6TRX-Rrp9p)
Snu13p (recombinant, wild type) (natural protein) MSAPNPKAFPLADAALTQQILDVVQQAANLRQLKKGANEATKTLNRGISEFIIMAADCEPIEILLHLPLLCEDKNVPYVFVPSRVALGRACGVSRPVIAASITTNDASAIKTQIYAVKDKIETLLI | binds | binds
Snu13p variant E72/A (recombinant) (natural protein) MSAPNPKAFPLADAALTQQILDVVQQAANLRQLKKGANEATKTLNRGISEFIIMAADCEPIEILLHLPLLCADKNVPYVFVPSRVALGRACGVSRPVIAASITTNDASAIKTQIYAVKDKIETLLI |  | binds
